# Assay results published in patent publication US20240392001A1 (University of Texas, published 2024).
# B1: NeuB2-128 (antibody, V domains shown)
# VH: QVQLQQSGAEVKKPGSSVKVSCKASGGTFSSYAISWVRQAPGQGLEWMGGIIPIFGTANYTQKFQGRVTITADESTSTAYMELSSLRSEDTAVYYCARGPSGSPYGMDVWGQGTTVIVSS
# VL: not shown
# notes: Human antibody from a phage library; also called 128-HC/128-LC
# B2: NeuB2-60 (antibody, V domains shown)
# VH: QVQLQESGPGLVKPSGTLSLTCAVSGGSITSSNWWSWVRQPPGKGLEWIGDISHSGSTNYNPSLKGRVTMSVDRSKNQFFLKLSSVTAADTAMYYCARAFHGMDVWGQGTTVTVSS
# VL: QSVLTQPPSVSEAPRQRVTISCSGSSSNIANNAVNWYQQLPGKAPKLLIYYDDLLASGVSDRFSGSRSGTSAALAISGLQSEDEADYYCATWDDDLNGPIFGGGTKVTVL
# notes: also called Ab60; 60-HC/60-LC
# B3: NeuB2-8 (antibody, V domains shown)
# VH: QLQLQESGPGLVKPSQTLSLTCAISGGNVSSKSAAWNWIRQSPSRGLEWLGRTYYRSKWYNDYAVSVKSRITINPDTSKNQFSLQLKSVTPEDTAVYYCARSLGEGWFPYFYGMDVWGQGTTVTVSS
# VL: QSVLTQPASVSGSPGQSITISCTGTNRDVGGYDYVSWYQQHPGKAPKLMIYGVSNRPSGISNRFSGSKSGSTASLTISGLQVEDEAAYYCSSYTASRTVVFGGGTKVTVL
# notes: Human antibody from a phage library; also called 8-HC/8-LC
# B4: NeuB2-19 (antibody, V domains shown)
# VH: QVQLVESGGGVVRPGGSLRLSCAASGFTFDDYGMSWVRQAPGKGLEWVSGINWNGGSTGYADSVKGRFTISRDNAKNSLYLQMNSLRAEDTALYYCAREGDGAFDIWGQGTLVTVSS
# VL: QAVVTQPPSASGTPGQRVTISCSGSGSNIRSNGVTWYQQFPGTAPKLLIYDNNQRPSGVPGRFSGSKSGTSGSLAISGLQSEDEADYYCAAWDDNLNAWVFGAGTQLTVL
# notes: Human antibody from a phage library; also called 19-HC/19-LC
# B5: NeuB2-29 (antibody, V domains shown)
# VH: QVQLVETGGGVVQPGRSLRLSCAASGFTFSDYAMHWVRQAPGKGLEWVTLISYDGSQKYYADSVKGRFTISRDDSKNTVDLQMNSLKAEDTAVYYCAKFPSLNDNVGFDVWGQGTMVTVSS
# VL: QSVLTQPPSVSGAPRERVTISCSGSTSNIENNAVNWYQQLPGKAPKLLIYYDDLVPSGVSDRFSGSKSGTSASLAISGLQSGDEAYYYCAVWDDSLNGPVFGGGTKVTVL
# notes: also called Ab29; NewuB2-29
# B6: NeuB2-40 (antibody, V domains shown)
# VH: QVQLVQSGAEVKKPGASVKVSCKASGYTFTNYGISWVRQAPGQGLEWMGWISGDAGDTKFAQKFQGRVTMTTDTSTTTTYMELRSLRSDDTAVYYCARDGEYIPMFRGFDNYYGLDVWGQGTTVTVSS
# VL: QPVLTQPPSVSEAPRQRVTISCSGSSSNIGKNAVNWYQQFPGKAPKLLIYYDDLLPSGVSDRFSGSRSGTSASLAISGLQSEDEADYYCAAWDDRLKGYVFGTGTQLTVL
# notes: also called Ab40; 40-HC/40-LC
# B7: NeuB2-9 (antibody, V domains shown)
# VH: QVQLVQSGAEVKKPGASVKVSCKASGYTFTSYAMHWVRQAPGQRLEWMGWINAGNGNTKYSQKFQGRVTITRDTSASTAYMELSSLRSEDTAVYYCARDFMGYCSSTSCYGVTGAFDIWGQGTMVTVSS
# VL: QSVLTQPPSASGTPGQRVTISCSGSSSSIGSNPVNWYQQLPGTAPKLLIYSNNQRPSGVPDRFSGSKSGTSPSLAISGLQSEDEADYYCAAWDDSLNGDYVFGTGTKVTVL
# notes: Human antibody from a phage library; also called 9-HC/9-LC
# B8: NeuB2-55 (antibody, V domains shown)
# VH: EVQLVQSGAEVKKPGSSVKVSCKASGGTFSSYAISWVRQAPGQGLEWMGGIIPIFGTANYAQKFQGRVTITADESTSTAYMELSSLRSEDTAVYYCARGVDQVDYWGQGTLVTVSS
# VL: QAVVTQPASVSGSPGQSITISCTGTSSDVGGYNYVSWYQQHPGKAPKLMIYDVSNRPSGVSNRFSGSKSGNTASLTISGLQAEDEADYYCSSYTSSSTPYVFGTGTKVTVL
# notes: also called Ab55; 55-HC/55-LC
# B9: NeuB2-110 (antibody, V domains shown)
# VH: QVQLVESGGGLVKPGGSLRLSCGISGFTFSDYYMSWIRQAPGKGLEWVSFIGTSGSTIYYADSVKGRFTISRDNANNSLFLQMNSLTVEDTAVYYCAREATSGTYFDYWGQGTLVSVSS
# VL: QAVVTQPASVSGSPGQSITISCTGTSSDVGGYNYVSWYQQHPGKAPKLMIYEVTNRPSGVSNRFSGSKSGNTASLTISGLQAEDEADYYCSSYTSSSTPYVFGTGTKVTVL
# notes: Human antibody from a phage library; also called 110-HC/110-LC
# B10: NeuB2-93 (antibody, V domains shown)
# VH: QVQLMQSGAEVKKPGSSVKVSCKASGGRFSSNVMSWVRQAPGQGLEWMGGIIPIFGTPKYAQKFQGRVTITADKSTSTAYMELSSLRSEDTAVYYCASGSTPFDAFDIWGQGTMVTVSS
# VL: QPVLTQPASVSGSPGQSITISCTGTSSDVGGYNYVSWYQQHPGKAPKLMIYEVSNRPSGVSNRFSGSKSGNTASLTISGLQAEDEADYYCSSYTSSSTPWVFGGGTKVTVL
# notes: also called Ab93; 93-HC/93-LC
# B11: NeuB2-13 (antibody, V domains shown)
# VH: QVQLVQSGAEVKKPGASVKVSCKASGYTFTSYYMHWVRQAPGQGLEWMGIINPSGGSTSYAQKFQGRVTMTRDTSTSTVYMELSSLRSEDTAVYYCAREDWGPFDYWGQGTTVTVSS
# VL: DIQMTQSPSSLSASVGDRVTITCRASQSISNFVNWYQQKPGEVPKLLIYGASSLQSGVPSRFSGSGSGTDFTLTISSLQPEDFATYYCQQGYSVPLTFGGGTKVEIK
# notes: Human antibody from a phage library; also called 13-HC/13-LC
# B12: NeuB2-80 (antibody, V domains shown)
# VH: QVQLVQSGAEVKKPGASVKVSCKASGYTFTSYGISWVRQAPGQGLEWMGWISAYNGNTNYAQKLQGRVTMTTDTSTSTAYMELRSLRSDDTAVYYCARDGGGGYFDYWGQGTLVTVSS
# VL: QAVVTQPPSASGTPGQRITISCSGSSSNIGKNIVNWYQQVPGAAPKLLIYNNSQRPSGVPDRFSGSKSGTSASLAISGLQSEDEADYYCAAWDDSLRSWLFGGGTKVTVL
# notes: Human antibody from a phage library; also called 80-HC/80-LC
# B13: NeuB2-37 (antibody, V domains shown)
# VH: QVQLMQSGAEVKKPGSSVKVSCKASGGTFSSYAISWVRQAPGQGLEWMGGIIPIFGTANYAQKFQGRVTITADESTSTAYMELSSLRSEDTAVYYCARGNHVLRFLEWLPNWFDPWGQGTLVTVSS
# VL: not shown
# notes: also called Ab37; 37-HC/37-LC
# Experiments:
# LILRB2 [1] = target: T1, LILRB2 (UniProt Q8N423 22-460, limits assumed); assay: ELISA of phage display clone on LILRB2
# T1 construct: Panning used recombinantly expressed LILRB2-His; also called Leukocyte Immunoglobulin-like Receptor subfamily B member 2; LILRB2-His
# LILRB2 [2] = target: T1, LILRB2; assay: BLI, Octet Red96
# Description: Kinetic binding parameters (KD, kₒₙ, and koff) were determined using Octet Red96 instrument (ForteBio; Fremont, CA).
# [3] = target: T2, LILRB2-chimeric reporter receptor on reporter cells (UniProt Q8N423 22-460); assay: cell-based or functional assay
# [4] = target: T2, LILRB2-chimeric reporter receptor on …; assay: cell-based or functional assay; remark: listed apart in the source
# [5] = target: T3, recombinantly produced LILRB2 extracellular domain (ECD) protein (UniProt Q8N423 22-460, limits assumed); assay: ELISA, plate-coated LILRB2, anti-human F(ab)2 HRP detection
# T3 construct: extracellular domain; A LILRB2-His protein was used for panning; also called plate-coated LILRB2; LILRB2 ECD
# Description: Antibody binding affinity to LILRB2 were measured by ELISA. Increasing concentrations of purified LILRB2 antibodies were incubated with plate-coated LILRB2. The bound antibody was detected by anti-human F(ab)2 HRP, and the signals were quantified as OD₄₅₀ values. EC₅₀ values (Table 5) were calculated using non-linear curve fitting function Sigmoidal dose-response (variable slope) in GraphPad Prism.
# [6] = target: T4, LILRB2 expressed on the surface of HEK293T cells (UniProt Q8N423 22-597, limits assumed); assay: flow cytometry on HEK293T cells expressing LILRB2, MFI fold over control; sheet also prints 95%CI=0.19-0.31 µg/mL
# T4 construct: whole, on cells; also called HEK293T cells that express LILRB2
# T4 sequence (Q8N423 22-597 limits assumed): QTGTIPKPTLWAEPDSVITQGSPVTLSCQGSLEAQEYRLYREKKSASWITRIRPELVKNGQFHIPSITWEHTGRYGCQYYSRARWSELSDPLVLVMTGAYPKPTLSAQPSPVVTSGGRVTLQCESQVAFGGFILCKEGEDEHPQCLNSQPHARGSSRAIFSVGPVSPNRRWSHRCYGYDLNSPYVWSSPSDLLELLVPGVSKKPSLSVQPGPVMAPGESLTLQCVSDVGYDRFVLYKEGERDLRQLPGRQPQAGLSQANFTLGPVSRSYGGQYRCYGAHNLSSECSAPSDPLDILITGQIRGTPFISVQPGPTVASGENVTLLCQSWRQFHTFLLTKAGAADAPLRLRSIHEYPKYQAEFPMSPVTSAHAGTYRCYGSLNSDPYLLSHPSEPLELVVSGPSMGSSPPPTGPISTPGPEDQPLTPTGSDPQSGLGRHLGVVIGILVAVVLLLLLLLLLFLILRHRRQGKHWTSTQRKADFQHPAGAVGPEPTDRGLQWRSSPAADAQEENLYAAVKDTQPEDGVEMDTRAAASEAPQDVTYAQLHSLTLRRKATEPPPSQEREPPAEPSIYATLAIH
# T1 sequence (Q8N423 22-460 limits assumed): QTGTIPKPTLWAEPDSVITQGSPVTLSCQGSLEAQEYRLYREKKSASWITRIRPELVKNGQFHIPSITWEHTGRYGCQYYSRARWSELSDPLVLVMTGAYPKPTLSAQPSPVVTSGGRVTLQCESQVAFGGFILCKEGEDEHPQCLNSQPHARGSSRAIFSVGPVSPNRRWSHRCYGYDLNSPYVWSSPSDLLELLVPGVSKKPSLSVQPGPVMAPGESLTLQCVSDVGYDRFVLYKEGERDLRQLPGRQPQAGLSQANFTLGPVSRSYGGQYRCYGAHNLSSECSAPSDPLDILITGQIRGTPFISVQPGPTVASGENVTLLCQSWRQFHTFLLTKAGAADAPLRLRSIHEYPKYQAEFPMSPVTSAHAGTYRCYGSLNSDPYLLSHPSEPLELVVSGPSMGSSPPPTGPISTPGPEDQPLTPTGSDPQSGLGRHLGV
# T3 sequence (Q8N423 22-460 limits assumed): as above
# T2 sequence (Q8N423 22-460, change not shown): as the sequence (Q8N423 22-460 limits assumed) above
Binder,OD450 in ELISA assay (LILRB2 [1]),Kd (LILRB2 [2]) [nM],koff (LILRB2 [2]) [s⁻¹],kon (LILRB2 [2]) [M⁻¹ s⁻¹],IC50 (M); GFP signal of LILRB2-chimeric reporter cells on plate-coated oAβ [3] [M],IC50 (M); blocking of PS-LILRB2 interaction [4] [M],EC50 [5] [nM],EC50 [6] [µg/mL]
B1,0.446,–,–,–,–,–,–,–
B2,0.744,24.1,0.00512,212000,9.82e-10,3.21e-10,0.161,–
B3,0.548,–,–,–,–,–,–,–
B4,0.663,–,–,–,–,–,–,–
B5,0.819,9,0.00151,168000,3.44e-10,1.42e-10,0.137,0.24
B6,0.276,19.2,0.00471,245000,3.6e-09,3.54e-10,0.0664,–
B7,0.515,–,–,–,–,–,–,–
B8,0.886,56,0.00723,129000,1.89e-09,3.35e-10,0.175,–
B9,0.972,–,–,–,–,–,–,–
B10,0.543,83.9,0.0103,123000,3.81e-09,4.45e-10,0.159,–
B11,0.552,–,–,–,–,–,–,–
B12,0.64,–,–,–,–,–,–,–
B13,0.417,8.45,0.0004,47400,8.62e-10,2.93e-10,0.658,–
